Data as given in the Human Domainome abundance scans (Beltran et al. 2025).
± gives the uncertainty stated by the source.

B1: GA-binding protein alpha chain, residues 172 to 250; numbered along this chain, Q06546 (parent)
chain: GYRKEQERLGIPYDPIQWSTDQVLHWVVWVMKEFSMTDIDLTTLNISGRELCSLNQEDFFQRVPRGEILWSHLELLRKY

Variants of: B1
Assay: abundance fitness (aPCA) (normalised: wild type 0, dead -1); higher = more abundant; growth selection in yeast, the domain comes from the species named
Conditions: Homo sapiens

Question: With GYRKEQERLGIPYDPIQWSTDQVLHWVVWVMKEFSMTDIDLTTLNISGRELCSLNQEDFFQRVPRGEILWSHLSLLRKY [E74S] as the variant, how does the abundance fitness read?
Answer: -0.051 ± 0.04

Question: Which abundance fitness does the source give for GYRKEQERLGIPYDPIQWSTDQVLHWVVWVMKEFSMTDIDLTTLNISGRELCSLNQEDFFQRVPRGEILWSHLCLLRKY [E74C] here?
Answer: -0.138 ± 0.1

Question: With GYRKEQERLGIPYDPIQWSTDQVLHWVVWVMKEFSMTDIDLTTLNISGRELCSLNQEDFFQRVPRGEILWSHLILLRKY [E74I] as the variant, how does the abundance fitness read?
Answer: -0.302 ± 0.071

Question: With GYRKEQERLGIPYDPIQWSTDQVLHWVVWVMKEFSMTDIDLTTLNISGRELCSLNQEDFFQRVPRGEILWSHLWLLRKY [E74W] as the variant, how does the abundance fitness read?
Answer: -0.336 ± 0.085

Question: With GYRKEQERLGIPYDPIQWSTDQVLHWVVWVMKEFSMTDIDLTTLNISGRELCSLNQEDFFQRVPRGEILWSHLDLLRKY [E74D] as the variant, how does the abundance fitness read?
Answer: -0.023 ± 0.058

Question: With GYRKEQERLGIPYDPIQWSTDQVLHWVVWVMKEFSMTDIDLTTLNISGRELCSLNQEDFFQRVPRGEILWSHLQLLRKY [E74Q] as the variant, how does the abundance fitness read?
Answer: -0.075 ± 0.11

Question: With GYRKEQERLGIPYDPIQWSTDQVLHWVVWVMKEFSMTDIDLTTLNISGRELCSLNQEDFFQRVPRGEILWSHLTLLRKY [E74T] as the variant, how does the abundance fitness read?
Answer: -0.161 ± 0.094

Question: Which abundance fitness does the source give for GYRKEQERLGIPYDPIQWSTDQVLHWVVWVMKEFSMTDIDLTTLNISGRELCSLNQEDFFQRVPRGEILWSHLGLLRKY [E74G] here?
Answer: -0.066 ± 0.041

Question: Which abundance fitness does the source give for GYRKEQERLGIPYDPIQWSTDQVLHWVVWVMKEFSMTDIDLTTLNISGRELCSLNQEDFFQRVPRGEILWSHLVLLRKY [E74V] here?
Answer: -0.213 ± 0.041

Question: For GYRKEQERLGIPYDPIQWSTDQVLHWVVWVMKEFSMTDIDLTTLNISGRELCSLNQEDFFQRVPRGEILWSHLKLLRKY [E74K], which abundance fitness is on record?
Answer: -0.106 ± 0.17

Question: With GYRKEQERLGIPYDPIQWSTDQVLHWVVWVMKEFSMTDIDLTTLNISGRELCSLNQEDFFQRVPRGEILWSHLALLRKY [E74A] as the variant, how does the abundance fitness read?
Answer: -0.061 ± 0.044

Question: Which abundance fitness does the source give for GYRKEQERLGIPYDPIQWSTDQVLHWVVWVMKEFSMTDIDLTTLNISGRELCSLNQEDFFQRVPRGEILWSHLYLLRKY [E74Y] here?
Answer: -0.287 ± 0.1

Question: Which abundance fitness does the source give for GYRKEQERLGIPYDPIQWSTDQVLHWVVWVMKEFSMTDIDLTTLNISGRELCSLNQEDFFQRVPRGEILWSHLFLLRKY [E74F] here?
Answer: -0.322 ± 0.1

Question: For GYRKEQERLGIPYDPIQWSTDQVLHWVVWVMKEFSMTDIDLTTLNISGRELCSLNQEDFFQRVPRGEILWSHLLLLRKY [E74L], which abundance fitness is on record?
Answer: -0.109 ± 0.04

Question: With GYRKEQERLGIPYDPIQWSTDQVLHWVVWVMKEFSMTDIDLTTLNISGRELCSLNQEDFFQRVPRGEILWSHLPLLRKY [E74P] as the variant, how does the abundance fitness read?
Answer: -0.904 ± 0.13

Question: With GYRKEQERLGIPYDPIQWSTDQVLHWVVWVMKEFSMTDIDLTTLNISGRELCSLNQEDFFQRVPRGEILWSHLNLLRKY [E74N] as the variant, how does the abundance fitness read?
Answer: -0.226 ± 0.13

Question: With GYRKEQERLGIPYDPIQWSTDQVLHWVVWVMKEFSMTDIDLTTLNISGRELCSLNQEDFFQRVPRGEILWSHVELLRKY [L73V] as the variant, how does the abundance fitness read?
Answer: -0.376 ± 0.052

Question: Which abundance fitness does the source give for GYRKEQERLGIPYDPIQWSTDQVLHWVVWVMKEFSMTDIDLTTLNISGRELCSLNQEDFFQRVPRGEILWSHAELLRKY [L73A] here?
Answer: -0.736 ± 0.071

Question: With GYRKEQERLGIPYDPIQWSTDQVLHWVVWVMKEFSMTDIDLTTLNISGRELCSLNQEDFFQRVPRGEILWSHEELLRKY [L73E] as the variant, how does the abundance fitness read?
Answer: -0.758 ± 0.19

Question: Which abundance fitness does the source give for GYRKEQERLGIPYDPIQWSTDQVLHWVVWVMKEFSMTDIDLTTLNISGRELCSLNQEDFFQRVPRGEILWSHMELLRKY [L73M] here?
Answer: -0.347 ± 0.059

Question: For GYRKEQERLGIPYDPIQWSTDQVLHWVVWVMKEFSMTDIDLTTLNISGRELCSLNQEDFFQRVPRGEILWSHCELLRKY [L73C], which abundance fitness is on record?
Answer: -0.979 ± 0.2

Question: For GYRKEQERLGIPYDPIQWSTDQVLHWVVWVMKEFSMTDIDLTTLNISGRELCSLNQEDFFQRVPRGEILWSHIELLRKY [L73I], which abundance fitness is on record?
Answer: -0.542 ± 0.088

Question: Which abundance fitness does the source give for GYRKEQERLGIPYDPIQWSTDQVLHWVVWVMKEFSMTDIDLTTLNISGRELCSLNQEDFFQRVPRGEILWSHKELLRKY [L73K] here?
Answer: -0.422 ± 0.18

Question: With GYRKEQERLGIPYDPIQWSTDQVLHWVVWVMKEFSMTDIDLTTLNISGRELCSLNQEDFFQRVPRGEILWSHTELLRKY [L73T] as the variant, how does the abundance fitness read?
Answer: -0.97 ± 0.15

Question: Which abundance fitness does the source give for GYRKEQERLGIPYDPIQWSTDQVLHWVVWVMKEFSMTDIDLTTLNISGRELCSLNQEDFFQRVPRGEILWSHYELLRKY [L73Y] here?
Answer: -0.962 ± 0.47

Question: For GYRKEQERLGIPYDPIQWSTDQVLHWVVWVMKEFSMTDIDLTTLNISGRELCSLNQEDFFQRVPRGEILWSHNELLRKY [L73N], which abundance fitness is on record?
Answer: -0.979 ± 0.23

Question: Which abundance fitness does the source give for GYRKEQERLGIPYDPIQWSTDQVLHWVVWVMKEFSMTDIDLTTLNISGRELCSLNQEDFFQRVPRGEILWSHWELLRKY [L73W] here?
Answer: -0.173 ± 0.055

Question: Which abundance fitness does the source give for GYRKEQERLGIPYDPIQWSTDQVLHWVVWVMKEFSMTDIDLTTLNISGRELCSLNQEDFFQRVPRGEILWSHQELLRKY [L73Q] here?
Answer: -0.713 ± 0.22

Question: Which abundance fitness does the source give for GYRKEQERLGIPYDPIQWSTDQVLHWVVWVMKEFSMTDIDLTTLNISGRELCSLNQEDFFQRVPRGEILWSHGELLRKY [L73G] here?
Answer: -0.937 ± 0.077

Question: With GYRKEQERLGIPYDPIQWSTDQVLHWVVWVMKEFSMTDIDLTTLNISGRELCSLNQEDFFQRVPRGEILWSHPELLRKY [L73P] as the variant, how does the abundance fitness read?
Answer: -0.658 ± 0.063

Question: With GYRKEQERLGIPYDPIQWSTDQVLHWVVWVMKEFSMTDIDLTTLNISGRELCSLNQEDFFQRVPRGEILWSHLEALRKY [L75A] as the variant, how does the abundance fitness read?
Answer: -0.02 ± 0.048

Question: For GYRKEQERLGIPYDPIQWSTDQVLHWVVWVMKEFSMTDIDLTTLNISGRELCSLNQEDFFQRVPRGEILWSHLEFLRKY [L75F], which abundance fitness is on record?
Answer: -0.136 ± 0.098

Question: Which abundance fitness does the source give for GYRKEQERLGIPYDPIQWSTDQVLHWVVWVMKEFSMTDIDLTTLNISGRELCSLNQEDFFQRVPRGEILWSHLEELRKY [L75E] here?
Answer: 0.024 ± 0.058

Question: With GYRKEQERLGIPYDPIQWSTDQVLHWVVWVMKEFSMTDIDLTTLNISGRELCSLNQEDFFQRVPRGEILWSHLEGLRKY [L75G] as the variant, how does the abundance fitness read?
Answer: -0.132 ± 0.047

Question: For GYRKEQERLGIPYDPIQWSTDQVLHWVVWVMKEFSMTDIDLTTLNISGRELCSLNQEDFFQRVPRGEILWSHLEDLRKY [L75D], which abundance fitness is on record?
Answer: -0.022 ± 0.093
